According to article PMC10338489, “Structural and photophysical characterization of the small ultra-red fluorescent protein” (Nature Communications, 2023):
Several values for one entry are separate records, joined by “and”; a condition that tells them apart may be missing. Identical values can stand only once.

Experiments:
smURFP H61R = assay: native gel or EMSA; NativePAGE 4-16% Bis-Tris gel, 0.27 μg purified protein per lane, without and with 100 mM DTT; Coomassie stain and far-red fluorescence; homodimeric smURFP used as a size reference
[1] = target: the molecule itself; assay: crystal structure; apo-smURFP crystallised from smURFP with 20% BV attached; hanging drop, 20 °C, 4 M Na nitrate + 0.1 M NaOAc (pH 4.6); 2.8 Å, space group C222(1), six protomers (three homodimers) in the asymmetric unit
[2] = target: the molecule itself; assay: cell-based or functional assay

## smURFP H61R
smURFP H61R
  stoichiometry N: 2 and > 2

## CytERM-mGFP
CytERM-mGFP
  OSER assay in HEK293A cells expressing CytERM-mGFP: ratio of the MFI of the OSER structure to the MFI of the nuclear envelope, after 24 and 48 h: < 2.3

B1: small Ultra-Red Fluorescent Protein (smURFP) (other)
chain: MKTSEQRVNIATLLTENKKKIVDKASQDLWRRHPDLIAPGGIAFSQRDRALCLRDYGWFLHLITFCLLAGDKGPIESIGLISIREMYNSLGVPVPAMMESIRCLKEASLSLLDEEDANETAPYFDYIIKAMS
modifications: biliverdin (BV) covalently attached to C52 in part of the protein (20% BV with high expression); the crystal holds apo-smURFP
[1]
  stoichiometry N: 2
[2]
  OSER assay in HEK293A cells expressing CytERM-smURFP: ratio of the MFI of the OSER structure to the MFI of the nuclear envelope, after 24 h (4.8) and 48 h (3.7): 4.8
